Results taken from patent US11311625B2, “Peptide-based multiple-drug delivery vehicle” (priority 2015, dated 2022).
Like-named read-outs stand apart in the source and are kept apart here.

Tests used:
[1] = system: HEK293 and TRAMP C2 cell lines; format: cell-based, human
Experimental: The cytotoxicity of the conjugates was determined by measuring the mitochondrial enzyme activity, using a commercial XTT assay kit. All samples contained DMSO at a final concentration <0.05%. Cells were cultured in micro wells at 2-4×10^4 cells/mL and incubated for 24 h or 72 h at 37° C. After the first incubation period of 24 h the cultures were washed and then given a fresh medium containing different concentrations of the tested substances. At the end of the second incubation, XTT reagent was added and the cells were re-incubated for additional 2-4 h. During that time the absorbencies in the wells were measured with a TECAN Infinite M200 ELISA reader at both 480 and 680 nm. […]
The in vitro activity of 9a was determined on human embryonic kidney 293 (HEK293) cells and human prostate cancer TRAMP C2 cell lines in order to compare the cytotoxicity of 9a relative to the three selected free drugs. […] The cytotoxicity of 9a was determined by measuring the mitochondrial enzyme activity of the different cell lines after incubation with the different substances for 24 h and 72 h. The viability factor (% of surviving cells) of the cell cultures was calculated relative to a control sample incubated with the vehicle only, considered as 100% viability. […]
FIGS. 19A-19D present the results of the viability assay (% surviving cells) of the cell cultures calculated relative to the control, 100% viability. […]

[2] = Bio-stability of 9a in murine liver homogenate (LH); format: in vitro ADME, mouse
Experimental: Preparation of the LH and assay: Mice were sacrificed by CO2 inhalation euthanasia. The livers were removed, minced, washed three times in cold PBS buffer and homogenized in Tris-HCl, pH 7.4 buffer (wt/3 vol.) by dozen strokes in a Potter-Elvehjem glass tissue grinder. The tissue homogenate was centrifuged at 4° C., 14000 rpm, 20 min. The supernatant was carefully collected (LH) and used immediately or else stored in liquid nitrogen. The concentration of protein was measured using the BCA protein assay with bovine serum albumin as a standard.
Assay incubation procedure: Incubations were conducted in an incubator oven set at 37° C. Each incubation tube contained 2 mL homogenate samples (equivalent to 6 mg total protein of mouse LH). The samples were prepared by adding 50 μL of stock solution to the LH at the beginning of the incubation period. Aliquots (100 μL) of the LH mixture were removed after 10, 30, 60, 90, 120, and 180 min. immediately quenched with 2.5 volumes of ethanol, and centrifuged at 14000 rpm for 15 min. The supernatants were collected, filtered and analyzed by LC-MS.
In order to get a biologically relevant picture of the release sequence of the different drugs, the bio-stability of 9a in murine liver homogenate (LH) was studied. Examination of the degradation rate of 9a, accompanied by cleavage of free drugs, was carried out following the LC-MS trace at different time intervals using premade authentic samples as reference signals.

[3] = Chemo-stability and drug release of 9a and CLB in buffers at pH 2, 5 and 7.4 (LC-MS); format: physicochemical; settings: for half-life at 0.04 mg/mL: buffer, read-out: degradation t1/2 (converted)
Experimental: Stock solutions chemo-stability studies were prepared by dissolving 5 mg of the tested compound in 5000 μl of DMSO.
Incubation procedure: Aqueous stability was determined at pH 2, 5 and 7.4. Aliquots (100 μl) of stock solution were diluted to a total of 2.5 mL with the desired buffer and then incubated at 37° C. During the incubation period (up to 160 h) 250 μL portions were drawn at different time intervals, filtered and analyzed by LC-MS.
Peptidyl delivery systems loaded with anticancer drugs are expected to reach their site of action with minimal degradation. The PDS should be stable enough to be absorbed by cancer cells and only then deliver its toxic cargo. Chemo-stability and bio-stability studies may give us a background check for the endurance of our compact peptidyl DDS under the different conditions it is expected to encounter in a potential animal test. To that end, samples of 9a were incubated at pH 2, mimicking stomach conditions, at pH 5 mimicking the microenvironment in tumors, and at physiological pH 7.4, all at 37° C. Aliquots from the stock solutions were extracted at different time intervals and analyzed by LC-MS following the decrease in concentration of 9a (i.e., chemical degradation) and the formation of the dihydroxy derivative 11. In addition, the direct release of the different drugs was also followed based on the increase in the concentration of CLB, AZA and CAMP over time. In this analysis samples of 9a, 11, CLB, AZA and CAMP were used as references. Overall, the HPLC trace presents a very complex mixture of metabolites which could not be exhaustively characterized. Scheme 9 below presented the molecular structure 11.

[4] = system: human prostate cancer TRAMP C2 cell lines; format: cell-based
Experimental: (§1) The cytotoxicity of the conjugates was determined by measuring the mitochondrial enzyme activity, using a commercial XTT assay kit. All samples contained DMSO at a final concentration <0.05%. Cells were cultured in micro wells at 2-4×10^4 cells/mL and incubated for 24 h or 72 h at 37° C. After the first incubation period of 24 h the cultures were washed and then given a fresh medium containing different concentrations of the tested substances. At the end of the second incubation, XTT reagent was added and the cells were re-incubated for additional 2-4 h. During that time the absorbencies in the wells were measured with a TECAN Infinite M200 ELISA reader at both 480 and 680 nm. The difference between these measurements was used for calculating the % viability in test wells compared to two controls: cells that were exposed to the medium and solvent, and those which were exposed to a solvent-free medium. All the tests were done in triplicate. Each experiment was conducted twice.
(§2) The in vitro activity of 9a was determined on human embryonic kidney 293 (HEK293) cells and human prostate cancer TRAMP C2 cell lines in order to compare the cytotoxicity of 9a relative to the three selected free drugs. […] The cytotoxicity of 9a was determined by measuring the mitochondrial enzyme activity of the different cell lines after incubation with the different substances for 24 h and 72 h.

[5] = system: human embryonic kidney 293 (HEK293) cells; format: cell-based
Experimental: as §1, §2

[6] = system: HCT 116, H1299, TRAMP C2 and HEK cell lines; assay: XTT growth inhibition assay, statements over all tested cell lines; format: cell-based, human; settings: tested cell lines including HEK
Experimental: The cytotoxicity of the peptide-drug conjugates was determined by measuring the mitochondrial enzyme activity, using a commercial XTT assay kit. All samples contained DMSO at final concentration <0.05%. Cells were cultured in micro wells at 2-4×10^4 cells/ml and incubated for 24 h or 72 h. After the first incubation period the cultures were washed and then given fresh medium containing different concentrations of the tested substances. At the end of the second incubation, XTT reagent was added and the cells were re-incubated for additional 2-4 h. During that time the absorbencies in the wells were measured with a TECAN Infinite M200 plate reader at both 480 and 680 nm. The difference between these measurements was used for calculating the % Growth Inhibition (GI) in test wells compared to two controls: cells that were exposed to the medium and solvent, and those that were exposed to a solvent-free medium. All the tests were done in quadruplicates. Each experiment was conducted twice.
In order to compare the cytotoxic effects of the conjugates relative to the free drugs, the in vitro cytotoxic effect of the drug bioconjugates 1a-e was determined on SSTR2 overexpressed HCT 116 human colorectal carcinoma, H1299 human non-small cell lung carcinoma and TRAMP C2 human prostate cancer cell lines. The SSTR2 low-expressed HEK-293 (Human Embryonic Kidney 293) cell line was used as a negative control. The study was elaborated over a concentration range of 1-10 μM.
FIGS. 13A-13D present the results of the XTT growth inhibition assay conducted for conjugates 1a-e. Growth inhibition effect of drug-conjugates versus free drugs was studied on three cell lines with an over-expression of SSTR2 (FIG. 13A. HCT 116; FIG. 13B. H1299; FIG. 13C. TRAMP C2) against the SSTR2 low expression cell line (FIG. 13D) HEK as negative control. All the cell lines were seeded and allowed to adhere in the wells, after which they were treated with the different compounds in increasing concentrations for 24 and 72 hr. After the treatment, growth inhibition was measured using the XTT assay: The culture medium was replaced by a new one, and then the XTT reagent was added. The wells were incubated for 2-4 hrs. after which the optical density (OD) was measured at 480 and 680 nm. Percentage of growth inhibition for each compound was calculated by comparison of the treated culture versus a control culture (free of any compound). The result shown for each concentration point represents the mean±standard error calculated from two different experiments. In each experiment the compounds were tested in quadruplicates.

[7] = system: HEK-293 (Human Embryonic Kidney 293) cell line; assay: XTT growth inhibition assay, HEK-293 negative control; format: cell-based
Experimental: The cytotoxicity of the peptide-drug conjugates was determined by measuring the mitochondrial enzyme activity, using a commercial XTT assay kit. All samples contained DMSO at final concentration <0.05%. Cells were cultured in micro wells at 2-4×10^4 cells/ml and incubated for 24 h or 72 h. After the first incubation period the cultures were washed and then given fresh medium containing different concentrations of the tested substances. At the end of the second incubation, XTT reagent was added and the cells were re-incubated for additional 2-4 h. During that time the absorbencies in the wells were measured with a TECAN Infinite M200 plate reader at both 480 and 680 nm. […]
In order to compare the cytotoxic effects of the conjugates relative to the free drugs, the in vitro cytotoxic effect of the drug bioconjugates 1a-e was determined on SSTR2 overexpressed HCT 116 human colorectal carcinoma, H1299 human non-small cell lung carcinoma and TRAMP C2 human prostate cancer cell lines. […]
FIGS. 13A-13D present the results of the XTT growth inhibition assay conducted for conjugates 1a-e. […] After the treatment, growth inhibition was measured using the XTT assay: The culture medium was replaced by a new one, and then the XTT reagent was added. The wells were incubated for 2-4 hrs. after which the optical density (OD) was measured at 480 and 680 nm. […]

## CC[C@@]1(OC(=O)NCCCC[C@H](NC(=O)CCCc2ccc(N(CCCl)CCCl)cc2)C(=O)NCCCC[C@H](NC(=O)Oc2c(OC)cc([C@@H]3c4[nH]c5ccccc5c4C[C@H]4COC(=O)N43)cc2OC)C(=O)O)C(=O)OCc2c1cc1n(c2=O)Cc2cc3ccccc3nc2-1 [9a, Lys(AZA)-Lys(CBL)(CAMP)]
[1]; 0.1-10 μM, both cell lines
  cytotoxic effect / relative cytotoxic activity: comparable level to the tested free drugs
[2]
  presence of free AZA: could not be detected
  time to concentration plateau of released CAMP: 30 min
  time to steady state plateau of released CLB: 80 min
[2]; 37° C.
  drug release in LH: quick release of CLB and CAMP
[3]; pH 2, 37° C.
  half-life at 0.04 mg/mL: 2 h
[3]; pH 5, 37° C.
  half-life at 0.04 mg/mL: 1.5 h
[3]; pH 2
  release of the three drugs: none of the three drugs appeared to be released intact or at all
[3]; pH 5
  appearance of free AZA: not detected
  maximum concentration of released CAMP: 34 nM
  period in which released CAMP decays completely: ≤ 80 h
  time at which CLB could be first detected: 38 h
  time to maximum concentration of released CAMP: 21 h
[3]; pH 5, after 100 h
  concentration of released CLB: ≤ 44 nM
[3]; pH 7.4
  free CLB: not detected
  maximum concentration plateau of released AZA: 12 nM
  time at which AZA concentration starts to rise above base-line: 20 h
  time at which CAMP could be detected: 75 h
  time to maximum concentration of released CAMP: 100 h
  time to maximum concentration plateau of released AZA: 40 h

## COc1cc([C@@H]2c3[nH]c4ccccc4c3C[C@H]3COC(=O)N32)cc(OC)c1O [AZA, Azatoxin, reference compound]
[1]
  cytotoxic effect / relative cytotoxic activity: most active drug
[4]
  surviving cells: less than 10%
[5]
  surviving cells: less than 10%
[2]
  stability of free drug in LH: stable

## CC[C@@]1(O)C(=O)OCc2c1cc1n(c2=O)Cc2cc3ccccc3nc2-1 [CPT, Camptothecin]
[6]
  IC50 values: low μM range
[7]
  cytotoxic effect: toxic
